Experiments:
[1] = target: T1, nLuc:cERβ; test: split firefly luciferase complementation in HEK293T cells, ligand dose response (FIG. 2C)
T1 construct: Expressed in HEK293T cells from pcDNA3; also called Myc:gsg:nLuc:gs10:cERβ; cSplit of ERβ CISPA sensor
T1 chain: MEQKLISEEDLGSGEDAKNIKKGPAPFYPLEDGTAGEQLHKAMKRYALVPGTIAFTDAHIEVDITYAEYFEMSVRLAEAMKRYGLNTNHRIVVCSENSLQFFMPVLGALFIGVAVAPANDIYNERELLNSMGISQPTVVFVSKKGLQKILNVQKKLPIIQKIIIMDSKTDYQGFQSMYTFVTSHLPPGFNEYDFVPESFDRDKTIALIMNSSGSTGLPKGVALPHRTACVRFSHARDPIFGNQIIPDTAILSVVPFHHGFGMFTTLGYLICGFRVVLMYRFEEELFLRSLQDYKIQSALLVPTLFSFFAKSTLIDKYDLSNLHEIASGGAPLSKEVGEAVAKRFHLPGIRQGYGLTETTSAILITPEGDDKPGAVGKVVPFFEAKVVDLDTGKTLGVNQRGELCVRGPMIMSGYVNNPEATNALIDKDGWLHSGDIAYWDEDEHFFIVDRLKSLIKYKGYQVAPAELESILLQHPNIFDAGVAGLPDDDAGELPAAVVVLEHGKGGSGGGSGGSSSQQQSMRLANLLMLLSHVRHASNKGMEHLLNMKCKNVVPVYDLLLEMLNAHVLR
Method: (§1) 50 ng of each plasmid encoding CISPA sensor pair was transiently co-transfected in HEK293T cells which were 24 h post-transfection stimulated with the indicated ligands. […] Replicates represent HEK293T cell cultures, individually transfected with the same mixture of plasmids. The values represent the mean and standard deviation of replicates within two to three independent experiments (n=4). Data was plotted as a standard dose response curve.
(§2) The fusion constructs were simultaneously expressed in the HEK293T cell line. […] Following this dimerization, the split reporter fragments (nLuc and cLuc) are brought into the proximity, leading to their reconstitution and measurable output signal (emitted light). The plasmids encoding for the CISPA sensors based on split LBDs were transiently transfected into the HEK293T cell line. […]
(§3) Two days after transfection, the cells were harvested and lysed with 25 μl of 1× passive lysis buffer (Promega). Firefly luciferase and Renilla luciferase expression were measured using a dual luciferase assay (Promega) and an Orion II microplate reader (Berthold Technologies). […] Relative luciferase activity (RLU) was calculated by normalizing each sample's firefly luciferase activity to the constitutive Renilla luciferase activity determined within the same sample.

[2] = target: T2, nLuc:cDHFR (human, UniProt P08659 2-491 = luciferase); test: split firefly luciferase complementation in HEK293T cells, methotrexate or pralatrexate dose response (FIG. 3B)
T2 construct: Expressed in HEK293T cells from pcDNA3; also called Myc:gsg:nLuc:gs10:cDHFR; cSplit of DHFR CISPA sensor
Method: (§4) Cell cultures of HEK293T cells were grown at 37° C. and 5% CO₂. For cultivation, DMEM medium with 10% FBS, containing all the necessary nutrients and growth factors was used. When the cell population reached a sufficient density, the cells were transferred to a new flask and/or diluted. For use in experiments, the number of cells was determined by the Countess automated cell counter (Invitrogen). A 96-well microtiter plate, suitable for growing cell cultures, was inoculated with 2*10⁴ cells per well 24 hours prior to transfection. Inoculated plates were incubated at 37° C. and 5% CO₂. […] Twelve hours after transfection, the cells were stimulated by removing the media and replacing it with media containing selected ligands. Cells were stimulated for 24 hours.
as §3
The plasmids encoding for CISPA sensor was transiently co-transfected into HEK293T cell line. […]

[3] = target: T3, nLuc:cGR2; test: split firefly luciferase complementation in HEK293T cells; dimerization only with cognate ligand
T3 construct: Expressed in HEK293T cells from pcDNA3; also called Myc:gsg:nLuc:gs10:cGR2; cSplit of GR2 CISPA sensor
T3 chain: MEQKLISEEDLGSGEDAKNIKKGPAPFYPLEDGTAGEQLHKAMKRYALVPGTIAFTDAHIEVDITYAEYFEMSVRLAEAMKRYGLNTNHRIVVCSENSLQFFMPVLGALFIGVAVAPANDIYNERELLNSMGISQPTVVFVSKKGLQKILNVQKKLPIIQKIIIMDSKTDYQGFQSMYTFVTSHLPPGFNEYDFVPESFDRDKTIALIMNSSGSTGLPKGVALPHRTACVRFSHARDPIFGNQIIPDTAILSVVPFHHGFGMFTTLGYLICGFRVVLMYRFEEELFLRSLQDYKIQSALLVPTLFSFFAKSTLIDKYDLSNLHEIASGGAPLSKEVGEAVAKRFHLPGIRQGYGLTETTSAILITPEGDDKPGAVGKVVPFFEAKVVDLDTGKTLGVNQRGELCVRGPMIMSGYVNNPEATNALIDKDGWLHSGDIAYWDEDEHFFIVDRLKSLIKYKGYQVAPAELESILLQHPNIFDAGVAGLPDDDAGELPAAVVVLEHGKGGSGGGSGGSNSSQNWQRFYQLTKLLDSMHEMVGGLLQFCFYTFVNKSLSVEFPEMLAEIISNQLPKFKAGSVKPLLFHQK
Method: as §1, §2, §3

[4] = target: T4, nLuc:cLyn; test: split firefly luciferase complementation in HEK293T cells, dasatinib dose response (FIG. 3A)
T4 construct: Expressed in HEK293T cells from pcDNA3; also called Myc:gsg:nLuc:gs10:cLyn; cSplit of Lyn CISPA sensor
Method: as §4, §3
The plasmids encoding for designed CISPA sensor were transiently co-transfected into HEK293T cell line. […]

[5] = target: T5, nLuc:cPPARγ; test: split firefly luciferase complementation in HEK293T cells, ligand dose response (FIG. 2E)
T5 construct: Expressed in HEK293T cells from pcDNA3; also called Myc:gsg:nLuc:gs10:cPPARγ; cSplit of PPARγ CISPA sensor
T5 chain: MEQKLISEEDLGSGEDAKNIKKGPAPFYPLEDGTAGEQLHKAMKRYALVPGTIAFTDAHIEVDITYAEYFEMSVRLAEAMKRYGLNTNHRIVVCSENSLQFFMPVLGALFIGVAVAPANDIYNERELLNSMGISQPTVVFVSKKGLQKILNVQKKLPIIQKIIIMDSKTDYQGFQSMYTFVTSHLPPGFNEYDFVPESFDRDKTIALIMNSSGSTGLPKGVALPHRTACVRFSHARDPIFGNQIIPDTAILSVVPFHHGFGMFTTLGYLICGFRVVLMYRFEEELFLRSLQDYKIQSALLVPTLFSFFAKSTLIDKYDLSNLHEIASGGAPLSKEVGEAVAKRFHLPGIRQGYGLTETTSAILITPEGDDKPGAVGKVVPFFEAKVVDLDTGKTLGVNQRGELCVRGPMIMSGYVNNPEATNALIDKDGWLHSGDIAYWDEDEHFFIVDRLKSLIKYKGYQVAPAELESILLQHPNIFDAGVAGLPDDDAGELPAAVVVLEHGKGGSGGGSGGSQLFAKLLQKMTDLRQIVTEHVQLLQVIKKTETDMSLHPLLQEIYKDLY
Method: as §1, §2, §3

[6] = target: T6, nLuc:cTRβ; test: split firefly luciferase complementation in HEK293T cells, ligand dose response (FIG. 2D)
T6 construct: also called Myc:gsg:nLuc:gs10:cTRβ; cSplit of TRβ CISPA sensor
T6 chain: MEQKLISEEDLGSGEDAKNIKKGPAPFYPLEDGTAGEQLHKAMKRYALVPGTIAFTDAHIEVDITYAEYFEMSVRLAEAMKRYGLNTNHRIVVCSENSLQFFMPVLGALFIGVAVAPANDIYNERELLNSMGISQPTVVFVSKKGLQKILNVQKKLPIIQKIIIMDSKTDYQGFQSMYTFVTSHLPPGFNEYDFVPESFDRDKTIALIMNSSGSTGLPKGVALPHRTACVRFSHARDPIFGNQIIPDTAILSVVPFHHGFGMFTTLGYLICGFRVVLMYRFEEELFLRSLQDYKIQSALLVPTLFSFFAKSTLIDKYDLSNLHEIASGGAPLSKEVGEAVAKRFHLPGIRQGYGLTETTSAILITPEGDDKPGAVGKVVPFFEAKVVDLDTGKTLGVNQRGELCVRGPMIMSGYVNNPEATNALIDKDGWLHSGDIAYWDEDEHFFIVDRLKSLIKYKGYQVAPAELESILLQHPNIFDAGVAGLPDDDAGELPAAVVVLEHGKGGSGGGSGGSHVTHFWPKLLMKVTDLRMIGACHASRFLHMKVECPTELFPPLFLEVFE

B1: nERβ:cLuc (other)
chain: MDALSPEQLVLTLLEAEPPHVLISRPSAPFTEASMMMSLTKLADKELVHMISWAKKIPGFVELSLFDQVRLLESCWMEVLMMGLMWRSIDHPGKLIFAPDLVLDRDEGKCVEGILEIFDMLLATTSRFRELKLQHKEYLCVKAMILLNSSMYPLVTATQDADSSRKLAHLLNAVTDALVWVIAKSGIGGSGGGSGGSTMTEKEIVDYVASQVTTAKKLRGGVVFVDEVPKGLTGKLDARKIREILIKAKKGGKIAVNSGSGYPYDVPDYA
notes: Expressed in HEK293T cells from pcDNA3; also called nERβ:gs10:cLuc:gsg:HA; nSplit of ERβ CISPA sensor
[1]
  binding result: binds

B2: nDHFR:cLuc (other)
chain: MVGSLNCIVAVSQNMGIGKNGDLPWPPLRNEFRYFQRMTTTSSVEGKQNLVIMGKKTWFSIPEKNRPLKGRINLVLSRELKEPPQGAHFLSRSLDDALKLTEQPELANKVDMVWIVGGSSVYKEAMNHPGHLKLFVTRIMQDFESDTFFPEIDLEKYKLLPEYPGVLSDVQEEKGGSGGGSGGSTMTEKEIVDYVASQVTTAKKLRGGVVFVDEVPKGLTGKLDARKIREILIKAKKGGKIAVNSGSGYPYDVPDYA
notes: Expressed in HEK293T cells from pcDNA3; also called nDHFR:gs10:cLuc:gsg:HA; nSplit of DHFR CISPA sensor
[2]
  binding result: binds

B3: nGR2:cLuc (other)
chain: MLISLLEVIEPEVLYSGYDSTLPDTSTRLMSTLNRLGGRQVVSAVKWAKALPGFRNLHLDDQMTLLQYSWMSLMAFSLGWRSYKQSNGNMLCFAPDLVINEERMQLPYMYDQCQQMLKISSEFVRLQVSYDEYLCMKVLLLLSTVPKDGLKSQAVFDEIRMTYIKELGKAIVKREGGGSGGGSGGSTMTEKEIVDYVASQVTTAKKLRGGVVFVDEVPKGLTGKLDARKIREILIKAKKGGKIAVNSGSGYPYDVPDYA
notes: Expressed in HEK293T cells from pcDNA3; also called nGR2:gs10:cLuc:gsg:HA; nSplit of GR2 CISPA sensor
[3]
  binding result: binds

B4: nLyn:cLuc (other)
chain: MAWEIPRESIKLVKRLGAGQFGEVWMGYYNGGSGGGSGGSTMTEKEIVDYVASQVTTAKKLRGGVVFVDEVPKGLTGKLDARKIREILIKAKKGGKIAVNSGSGYPYDVPDYA
notes: Expressed in HEK293T cells from pcDNA3; also called nLyn:gs10:cLuc:gsg:HA; nSplit of Lyn CISPA sensor
[4]
  binding result: binds

B5: nPPARγ:cLuc (other)
chain: MGSHMLNPESADLRALAKHLYDSYIKSFPLTKAKARAILTGKTTDKSPFVIYDMNSLMMGEDKIKFKHITPLQEQSKEVAIRIFQGCQFRSVEAVQEITEYAKSIPGFVNLDLNDQVTLLKYGVHEIIYTMLASLMNKDGVLISEGQGFMTREFLKSLRKPFGDFMEPKFEFAVKFNALELDDSDLAIFIAVIILSGDRPGLLNVKPIEDIQDNLLQALELQLKLNHPESSGGSGGGSGGSTMTEKEIVDYVASQVTTAKKLRGGVVFVDEVPKGLTGKLDARKIREILIKAKKGGKIAVNSGSGYPYDVPDYA
notes: Expressed in HEK293T cells from pcDNA3; also called nPPARγ:gs10:cLuc:gsg:HA; nSplit of PPARγ CISPA sensor
[5]
  binding result: binds

B6: nTRβ:cLuc (other)
chain: MHMEELQKSIGHKPEPTDEEWELIKTVTEAHVATNAQGSHWKQKRKFLPEDIGQAPIVNAPEGGKVDLEAFSHFTKIITPAITRVVDFAKKLPMFCELPCEDQIILLKGCCMEIMSLRAAVRYDPESETLTLNGEMAVTRGQLKNGGLGVVSDAIFDLGMSLSSFNLDDTEVALLQAVLLMSSDRPGLACVERIEKYQDSFLLAFEHYINYRKHGGSGGGSGGSTMTEKEIVDYVASQVTTAKKLRGGVVFVDEVPKGLTGKLDARKIREILIKAKKGGKIAVNSGSGYPYDVPDYA
notes: also called nTRβ:gs10:cLuc:gsg:HA; nSplit of TRβ CISPA sensor
[6]
  binding result: binds

Source: US20250321223A1 (KEMIJSKI INSTITUT, published 2025)
